# The NTF2 design screens of Basanta et al. (2020)
# Test: protease stability score; higher = more stable; yeast display proteolysis, trypsin and chymotrypsin;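 also: relative to predicted unfolded state with 0 unfolded-like and 1 meaning tenfold more protease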
row,Sequence,protease stability score
1,HEEERDLEHWDELLLKSITTGDWRILTKLVDPHARIIILVNGKLITHIGREYVYHLLLRFDHIRTHDFRTNIQGDYIDHHIEGKLHVNGKDMDSHIINHSEKVDGRWTVHTVNIEFI,1.22
2,DEEKKDLDILIEILFEIIYTGNEEKFRELVDPNAKSRVGDKKTHGREDATKLLSKKWRHMRIRTMDVHDFRHYDGQIDVDSRLDGDINGVELLLEVRLILVKYDGRWLIKNIHIQ,1.43
3,DEDERVLEEALRLWLHWVATGNETKLMEMLDPNVRLDIGDKHTHGREKFHEFMKHHKELWGVTRFHLELKRYSIQGDKVEIDIEVDINGRHFDVHIRILKIDGKWRLEQVRIN,1.51
4,SEDDEDVERAAKLMLHILRTGDERHLHEYLDPNVRSIVNGREFHGRESLLHVMTLQMRELGIDHINVRRVKYDEDEVHFFMNVNINGQHREVIFRAKKINGRWIFHEVELR,1.7
5,TEDREEVRRWWKDLLRSLHTGDEEVLRKQIDPNVKLVDEDERSVGMDRFVKFMHFINREIRIERIHIKRLRLIDGQLEADTRMHVNIDGRIEETDVHILAKKVDGKWLLTSVILD,1.48
6,DEDTEEVRKADKIYIHYLLTGDEHKNNRLADPNVRLHWNGREFHGMELFTEAFREIRHELRFDHITHHHLRMFNGRLDSDTRVDGDINGVRTIFEMKLTLLKVDGRWVLKSTEIR,1.26
7,SDEERHAEFVSRRILHALRTGDWEILFKMADPNVKSTIGDKHHHGWEIMSDMYKKLWEDLGVKHLDLKRITYVDGVVHIDERIRIGDKTHNVELNFVVIDGVLRSVEVHVR,1.14
8,DHDEKVSKEVLHEFLHVLRTGNWDHLIKNIDPNARLEVDGVDIHGRENVHKFLDEFHKRMGVDHHELHDEKMTIIDGVLQIDLDTTTEFNGRRFKTTIHLFVLKINGRWTFKTLIIKHE,2.03
9,NEEEEHIFELWELFLKASHTGDEDSLKEFADPNTRQIVDGQEIHGREKFTEHLSWRAKELRLESVHIRRLHIIDGRIHVDGLIRGRINGREIEIETEVISIKVNGKWILKEMNFK,1.28
10,SEEEELARHIFELWIKTLRTGDEKLLRELADPHVQVILLVDGRHLENHGWEEFVRIFKEWRIHRVHVHDVKVFENRIHMDGTIDYEIGDKRFITKRIVDLVVINGRLKRLEIQIH,2.66
11,SEEDELLREVFELWVEIVRTGDESRLKKLLDPHVRLIYNGRRYHGWEEVVRFYREWRIKSMSIHSIETQGDKAHANSETDIEYNGKRERSDIRIHMIVINGRIHHIEIREH,2.39
12,SESEKASEIATKELEEVEKTGDEKTIEDYMDPNTRLHINGVDLHGMENFLEFWHRLLRKLGFESTSFHLKSSRIQGNKIKMHSIIHVKQGEKDISFDVEYIALKFNGRWIEESMSSK,1.32
13,TEEDEVTEELARNWVKYFLTGDEEQLHRLMDPNARFHTIVGDKHVHRHGRESIVHWIDHVLRHIRIEEVHIRRVHIWNGRVDINNEEIGRVGDKHYRTEVRIHLRIVDGVIRSVDIDIE,0.693
14,SEEHEKLHHLMELMLNAITTGDWEIIEHLADPNVRIDQGEWHDHGREKLIHIHELVRERMGIKHVEVRDSRMFHINGVVVIILRLDLNVNGKHRFEILRLQFRKVDGQWVMHSLDIELR,1.74
15,HEEEKSRKKEFEEYVRSVKTGDERLLTEMADPNARVHIGDKTLIGRELMHEMWHEQLKQIDVFHDIKTTHSEVQGDKIHMHVVEDIIIGDKRHTIRLRMIAWKFNGKWLVEEVRFE,0.435
16,DEDEERSERLLHMVIELLLTGDEEKWNNLLDPHARVEIDGQERHGRHIVTHFLTRFKNVRMHIHDVKVYGEKVDITTEITFNGKHINVHIELVFVNGKMTSVRFEWHRH,2.02
17,SEEHEDAHEMFELWSILLITGDERILHQLMDPDAKTTIDGQEFHGREKLIEVFREFLKRIDHIHEVEVTRMTFFDGRLHINLRVHVTINGVHRQFRVIIIIVKIDGRWVIQSQEIV,1.63
18,DEDHHLVQLASEIVSKLIHTGDEEMIYHLADPHTRNDVNGKVFHGRDEMLKYLHDRWRHFGVERINHIVHHIRVVDGRADIDGRLHVGDKDFTVHIHMEKVNGRWVIKEIRIK,0.68
19,DEDEELARKVLKVWNQAVQTGDEEVLHKLFDPNVQLVQGDKQLHGMESLVRFLRRYDVVRHVDSDVERIHVQGDKIRVTIRLIVDMEINGKRVRTELTIHFIIEKIDGRWVLRELHFE,0.964
20,REEESEWKKFFEDLLRSLVTGDESSLSKMIDPHARLDVDGREFHGREHMAHWIVRTLNEHGITIKIEIKDFRLVGDKVHVDGHEDIEVGDKRHERRLHIILLKFNGRWVIKELKVE,2.67
21,DEEERVRDEIERLIEESLRTGDWRHLSELFDPNVRMEVGDKDIIGRERVHQAIHDFWKSFGADHRHLHDIEEINGVVIMHMRYRVGNKTVHFHVIMIKINGRWFLHSVHIHID,1.11
22,SEDQHDAEWALRLFVRLHETGDFEEIYRNADPNMRWFVNGVDSHGRENASKLLHKLMDDLGIDHVQIEHVELRVQGEKIIVHMRVTQVINGREVDSRIEVHMEKFDGKWELKHVELRIH,1.31
23,DKEKEDAVRIVEHWIEALLTGDEHELKKYLDPEVRVEINGRDIHGMHLWSEHFKELRHEELHIHIRTVHVFDGKMSVEGELRIVGEVDGRRTDIIYHTEIEIEKVDGRWHIHHIHLR,-0.195
24,KEEEWLAREWLRLWFEAVMTGDEHRLNHMLDPHVRTIVGDYEDVGRERSSELFLEIRLDHMELTSLDVQGDYAHLEIRVDGTIDGKRIETEMRVTLNIVDGRFRTVEHRIS,0.755
25,NEMEEYVERASRFVYELLQTGDWEKLMNNMDPNVKIRQGNKEYHGREELKRQLEELFKNWGFDRIDVEHHEIKIFENHAHIIHIMRFDGVEHELRIKALKVNGQWLFKTVEIRLH,1.36

row,Sequence,protease stability score
1,DEAEEHMRRYSELMMKSFLTGDEHTLRKLADPHTKLIFNGKELHGREEVARVFTWSREELGVDHQDVRHVSVRLVDGRVHVDIILEVNVGDKRFQVHIHLTILKYDGRWFVESVHIEIR,0.285
2,SEEEHVAEELIKQFLRKFSTGDEDSMRNLFDPNVKIEQGEFDIHGREEETRYFRELRVHIEDSTAREIRVQGDKVDIDLEVVGIVHFNGKTVRRIIRTRVHLLKVDGQWHIKSIQIL,1.24
3,REEDERDHRISELLFDLWVTGDWEIFHHLADPNVKANINGQETHGREKIMRIMMRMIHEFGFKHIQLEDSTVINGRVHQQIKVRVGDKSEEFNIHHHVVDGKIKHIHIEVR,1.36
4,HEDEELSEKWLEDILRDHETGNEHRLRELFDPDARSHVGDKKIIGREDWSRALKEFIEKFPGVRIEIRHHENDIVGDKVRLDVTIILNFNGVEHEMKVTLILRKYNGRWRIREIRIR,1.25
5,SEDEKLAEDFFELLRHLIHTGDENTLREFADPRTRVQINGREIHGWDESARHIMHETLRFKNMRINLHLKDRRVIGEKMELDVKVQLHFNGQTEEFDFILYVEKVNGKWVIKSIHVH,1.26
6,DETHVQMERFIEEHIKSHITGDEDYLRENIDPEARVVIDGQTYHGWKAIKDAIDQWRVTDMRIRHVRVQGEKVDIHGRLHVDVNGRNIDLEVRIIVTKVDGRWVVDQLIFN,1.16
7,DEERENAERMLKAWVEILETGDEHRISRLLDPNVQFQIGDKHLHGREDVLRHLSEMIKKVKNLTISIHSINIQGDKVHVDGHIHVNGVDHKNDLILLKVNGRWFVTSLKIE,1.78
8,DHEEKLSEDISRFLLELYLTGDPERLAKNADPNTKLIIDINGRHEDIHGREYIYKWSLDWFRKAGVTRVEFDLRSMDVQGEKAVIHGVNRVGDKDRHMTEIWIVVNGKLKEVRVKLE,1.28
9,SEDEREAIRFLELWVRESRTGDEDSTDRLADPHTRVEFENHHSVGREHAVTFLIHLRTHHFEIHEVQVFNGRIEMRLHVDGIFNGRRYRSDVLLVVLKIDGQWLLHSIRFH,1.52
10,DEEEKLLEQLARLILHNLLTGDWKSHMNNADPDVKVTVNGVLVHGREDMSHLYRELLERIPNIQIRVDRVDIQGDKVHARLWVEFDGKERQSELHVRIVNGRIKEETYHEK,0.937
11,EEDREHAREILRQLHHWFMTGDEEKWSKLMDPDARHHIHVGDKHSEYHGREEVIRFLRELIRHWRIDEVRIRRLHSIDGRVHSDIIVDGQVDGRHDRRDYELRVSVVDGRLKEVTIIVH,1.07
12,SEEDRLLEELLKLYLHLEATGNEDRFAELVDPDARMDFNGREHHGREEIRHHMVKHWKDLGVKHLHIDRFRYFNGVLDVRGHLKVNGREKDVVWILEIIDGRIHEIRHHLH,1.28
13,DEWKEDSRRAIELELRHLQTGDEDLTEKYADPHARVHIGDKEFHGRDHYIETLRRMGIKHVEVREIREQGDFLKMDVHVNVDGRELTVHFVMRKVNGRWRIHMIEVR,1.11
14,DEIDNELKTALRRLLHTWMTGDEDSLERLADPNVRFHQGDKDMHGREHMVKWFKEMIDRFPNLRIHDFIISEVRFFDGKAELIGTVLRTYGDKTDEVDFTIISTKIDGQWRIHEIRIN,1.26
15,TEKEELYRKIYELLENLLFTGDEHAWRNNMDPHVKILLNIDGKIHDLHGWHAWHLVLRLLGIDHMEFKDFHVQGDKFHLELTVDFDGREHIMRVDIIVVNGKITSVRVSIE,1.37
16,SDIEEMYRINLEIFEHSQQTGDWRMISHMADPNVRISVGDKEIHGRELFEKHLRDTVEKLGAEVHWELNHVRIQGDKLLVRGHLRIKYGDKHETFDIELYADKVDGKWLIHEIRVD,1.44
17,SEDEENIKRHLEIWFTALKTGDEDTSRRMIDPNARFQVGDKHEHGMDSLVRELLREWKERGIELKSIRTTEIHIQGDKIFLNSRRDVLVNGVRIILETEIRFLKVDGRWLITEVSER,1.22
18,DEDREVAENMVRLFIHFLLTGNEERLNQYFDPHTLLIVGDKRYHGMEESNKWIVELWTERVEIRHIEVDYYGDKVHATISGHHVGIVDGKRIETQVDFHFRIDKIDGRWVAREVEIRHD,2.06
19,DEDEKTAEETLNEFIRSLLTGDEDNLKHLLDPNTRFHINGQDIHGWEVYYEMFRQWRVTHVRLEVKDFRIFNGRLDADGHLRMHGTINGKNRDTSSILHMHSVKVNGRWVLTEVRVE,1.78
20,SDEERDANRFIKLWVDAMTTGDWEEISLLLDPNVLLLVGDKTYHGREEFVRIMHELIERVKNIRVEIKHREVQGDKIRVDTVLRVNGRTLREHVVMEKVNGQWVIRSLEFD,2.3
21,DEEEHIMKHELEKWWETVDTGDEDEMLRLADPNVRVDFNGREFVGREEFLKHVEFMVKEWRLTDRRIEREHVIDGKMIIHMRVHGTFNGKETDTRIEIILHVVDGKVKSEEYRIK,2.06
22,SEDQKFFEELVRLMYEYSLTGDWELSERLLDPNALIDIDGVEFHGREIFVESMRHIRLDHIEIRHVESINGRIHAKTEVDGTVNGQRRRRDVEIHLLKVNGRWYIRRVNFK,2.45
23,REEEKDIRDVLKLWKDISRTGDEHLIRRLVDPNARLNFNGREIHGREDVAEFLLRRWRQIDHLEIIDRDVRYQGDKVEFHGHVREKIGDKEETYELEFILVKIDGRWLVHSLHVH,2.43
24,SDHRRLLEELLKIIIKAMMTGDESTLERMFDPNVRINIDGVDDHGWESFDRMFHELRIDHARVEYIDVVNGRARVHTNFEVHFDGRRIHWETEIVVVIVNGRNREVSIIRH,0.739
25,DEDEDSFRRISKLLSHAFRTGDEDLVLELLDPHVRIVIGDKELHGWEQMDRWVRELRIRDHEIKRLDIQGDKAIVDTRLLTRVGDFHYLIDVRIIFTKVDGQWHVHQFEFH,1.52
